Paper PMC3507626, “The Crystal Structure of the Intact E. coli RelBE Toxin-Antitoxin Complex Provides the Structural Basis for Conditional Cooperativity” (Structure(London, England:1993), 2012)

Tests used:
[1] = biological target: the molecule itself; assay: not stated; isolated RelB and isolated RelE in solution; data not shown
[2] = biological target: T1, Escherichia coli RelE R81A (untagged, full-length toxin) (Escherichia coli, UniProt P0C077 1-95, R81A); assay: crystal structure; RelB2E2 reconstituted from purified RelB and RelE R81A; crystals at 4°C, 1.6-2.0 M ammonium sulfate, 0.1 M Na acetate pH 4.6; space group P6(1)22; 2.8 Å; settings: both partners purified
T1 construct: RelE toxin of the relBE locus, Escherichia coli, 95 residues, R81A active-site mutant; also called R81A active-site mutant
T1 sequence (looked up): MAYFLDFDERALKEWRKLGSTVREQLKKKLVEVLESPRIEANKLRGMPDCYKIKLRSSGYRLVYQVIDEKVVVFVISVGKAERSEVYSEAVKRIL

B1: Escherichia coli RelB (untagged, intact antitoxin) (natural protein, UniProt P0C079 1-79, looked up)
chain: MGSINLRIDDELKARSYAALEKMGVTPSEALRLMLEYIADNERLPFKQTLLSDEDAELVEIVKERLRNPKPVRVTLDEL
notes: RelB antitoxin of the relBE locus, Escherichia coli, 79 residues (residues 2-79 of 79 seen in the structure); Untagged; Details of purification are in the Supplemental Experimental Procedures; source: E. coli, plasmid pSC2524HE encoding His-tagged RelE R81A and untagged RelB; purified by denaturation, ion exchange, gel filtration
stoichiometry N [1]: 4 | binding result [2]: binds
